{"source": "patent US20240288416", "tested_on": "green fluorescent protein (GFP) carrying an ssrA tag at the C-terminus"}
{"substance": "unfoldase ClpX", "values": [{"measurement": "controlled translocation through the opened ClpP-nanopore (ionic current traces, ATP present)", "value": "ClpX-assisted transport of GFP across opened ClpP-nanopore in the presence of ATP"}]}
